Measurements from PMC11104609, “Discovery of allosteric regulators with clinical potential to stabilize alpha-L-iduronidase in mucopolysaccharidosis type I” (PLOS ONE, 2024).

Tests used:
[1] = target: T1, IDUA (Homo sapiens, UniProt P35475); assay: Denaturation prevention (isothermal denaturation) assay with SYPRO Orange; assay type: binding; design: purchased R&D Systems; conditions: pH 7.0 and 37 °C, no compound
T1 sequence (P35475 28-653): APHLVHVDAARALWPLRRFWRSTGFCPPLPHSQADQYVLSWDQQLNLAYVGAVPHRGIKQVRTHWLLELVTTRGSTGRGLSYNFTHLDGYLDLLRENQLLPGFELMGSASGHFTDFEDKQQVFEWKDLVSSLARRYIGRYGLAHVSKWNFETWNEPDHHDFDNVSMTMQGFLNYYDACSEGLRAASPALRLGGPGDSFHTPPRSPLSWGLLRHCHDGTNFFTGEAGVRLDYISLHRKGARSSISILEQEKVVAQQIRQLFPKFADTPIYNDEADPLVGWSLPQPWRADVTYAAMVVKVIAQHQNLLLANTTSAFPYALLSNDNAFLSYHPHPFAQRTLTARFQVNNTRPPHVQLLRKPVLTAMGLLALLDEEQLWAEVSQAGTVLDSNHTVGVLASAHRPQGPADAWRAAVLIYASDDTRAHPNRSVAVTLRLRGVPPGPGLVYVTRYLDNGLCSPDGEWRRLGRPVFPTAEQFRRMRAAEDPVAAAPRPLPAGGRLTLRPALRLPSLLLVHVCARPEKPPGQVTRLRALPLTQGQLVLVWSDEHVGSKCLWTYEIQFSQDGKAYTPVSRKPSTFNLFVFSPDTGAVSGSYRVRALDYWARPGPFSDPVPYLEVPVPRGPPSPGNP
Description: The capacity of the compounds to stabilize IDUA in neutral pH buffer was assessed using the denaturation prevention assay. Briefly, rhIDUA (obtained from the Institute of Biotechnology and Biomedicine in the UAB, Bellaterra, Spain) was combined to a final concentration of 1 μM with 5X SYPRO Orange and 30 μM of the corresponding compound in a final reaction volume of 25 μL in 100 mM Hepes, 20 mM MgCl2, pH 7 buffer, or 25 mM NaAc, 150 mM NaCl, pH 5.2. Reactions were incubated at 37 °C, and SYPRO Orange fluorescence intensity was monitored at the indicated time points using Glomax® Discover microplate reader (Promega, Madison, WI, USA). Two independent experiments in triplicate at one concentration (30μM) of compound #18 (GT-01803) were performed for denaturation prevention assays.

[2] = target: T1, IDUA; assay: IDUA enzymatic activity in patient-derived fibroblasts after rhIDUA with or without compound (4-MUI substrate); assay type: cell-based; design: Institute of Biotechnology and Biomedicine, Autonomous University of Barcelona (UAB), Bellaterra, Spain; conditions: rhIDUA 1.25 nM alone
Description: Fibroblasts derived from Hurler (GM00798) and Hurler/Scheie patients (GM02845, GM00512, GM01898, GM00963) were purchased from Coriell (Camden, NJ). Fibroblasts were cultured in Dulbecco’s modified Eagle’s medium (DMEM, Gibco) supplemented with 10% inactivated fetal bovine serum (FBS, Gibco) and 1% penicillin-streptomycin (Thermo Fisher Scientific, Waltham, MA, USA) (growth medium) at 37 °C under 5% CO2. The effect of the protein and/or compound in enhancing IDUA enzymatic activity was evaluated as follows: The specified patient-derived fibroblasts were seeded at 4x10^4 cells per well in 12-well cell culture plates in growth medium. Subsequently, cells were incubated with indicated dose of rhIDUA (obtained from the Institute of Biotechnology and Biomedicine in the UAB, Bellaterra, Spain) in the absence or presence of the compound #18 (GT-01803) for the specified incubation times at 50 μM. After incubation, cells were washed with PBS and detached using Trypsin-EDTA solution (Sigma Aldrich, St. Louis, MO, USA) to prepare cell pellets. The pellets were stored at -80 °C until activity assays were performed. IDUA activity in cell lysates was measured using 4-methylumbelliferyl IDUA substrate (4-MUI, Glycosynth Ltd., #44076, Warrington, UK). Briefly, lysates were resuspended in 120 μL of 0.9% NaCl containing 0.01% Triton X-100 lysis buffer to promote membrane disruption. Next, the cell suspension was sonicated and centrifuged to pellet insoluble materials. Then, 25 μL of lysates were mixed with 25 μL of 200 μM 4-MUI substrate solution in 0.4 M sodium formate, pH 3.5, 0.2% Triton X-100 buffer and incubated for 60 mins at 37 °C. The reaction was stopped by adding 200 μL of 0.5 M Glycine/0.3 M NaOH buffer, pH 10. The liberated 4-methylumbelliferone (4-MU) was measured on a Glomax® Discover microplate reader with excitation at 340 nm and emission at 460 nm. Protein quantification was determined using Pierce BCA Protein Assay Kit (Thermo Fisher Scientific, Waltham, MA, USA). Measurements were interpolated in a 4-MU standard curve and normalised by protein quantity.
For Fig 6A, rhIDUA concentrations of 0.187, 0.375 and 1.25 nM were tested in GM02845 fibroblasts over a 96-hour period, both in the presence and absence of the compound #18 (GT-01803) at 50 μM. In Fig 6B, 1.25 nM of rhIDUA was evaluated in GM02845, GM00798, GM00512, and GM00963 fibroblasts for 96h, with and without the compound #18 (GT-01803) at 50 μM. In Fig 6C, a concentration of 1.25 nM of the protein was applied to fibroblasts for 4, 8, 24 and 96h, with and without the compound #18 (GT-01803) at 50 μM.

B1: rhIDUA: recombinant human alpha-L-iduronidase, enzyme replacement therapy protein (protein, UniProt P35475 28-653, looked up)
Alpha-L-iduronidase: APHLVHVDAARALWPLRRFWRSTGFCPPLPHSQADQYVLSWDQQLNLAYVGAVPHRGIKQVRTHWLLELVTTRGSTGRGLSYNFTHLDGYLDLLRENQLLPGFELMGSASGHFTDFEDKQQVFEWKDLVSSLARRYIGRYGLAHVSKWNFETWNEPDHHDFDNVSMTMQGFLNYYDACSEGLRAASPALRLGGPGDSFHTPPRSPLSWGLLRHCHDGTNFFTGEAGVRLDYISLHRKGARSSISILEQEKVVAQQIRQLFPKFADTPIYNDEADPLVGWSLPQPWRADVTYAAMVVKVIAQHQNLLLANTTSAFPYALLSNDNAFLSYHPHPFAQRTLTARFQVNNTRPPHVQLLRKPVLTAMGLLALLDEEQLWAEVSQAGTVLDSNHTVGVLASAHRPQGPADAWRAAVLIYASDDTRAHPNRSVAVTLRLRGVPPGPGLVYVTRYLDNGLCSPDGEWRRLGRPVFPTAEQFRRMRAAEDPVAAAPRPLPAGGRLTLRPALRLPSLLLVHVCARPEKPPGQVTRLRALPLTQGQLVLVWSDEHVGSKCLWTYEIQFSQDGKAYTPVSRKPSTFNLFVFSPDTGAVSGSYRVRALDYWARPGPFSDPVPYLEVPVPRGPPSPGNP
**Q.** For B1, which “stability of rhIDUA at physiological conditions” value [1] is on record?
**A.** unstable

**Q.** What about the “mean IDUA cell activity at 96h” value ([2]; GM02845 fibroblasts (Fig 6C)) of the same molecule?
**A.** 75.63 nmol/h/mg

**Q.** What about the “mean IDUA cell activity” value ([2]; GM02845 fibroblasts, 96 h (Fig 6A)) of the same molecule?
**A.** 53.37 nmol/h/mg
